Here are results for twelve variants from IntAct's records for PubMed 31515488.

To fix the notation:
B1: Homeobox protein PKNOX1 (Homo sapiens), P55347 (parent)
chain: MMATQTLSIDSYQDGQQMQVVTELKTEQDPNCSEPDAEGVSPPPVESQTPMDVDKQAIYRHPLFPLLALLFEKCEQSTQGSEGTTSASFDVDIENFVRKQEKEGKPFFCEDPETDNLMVKAIQVLRIHLLELEKVNELCKDFCSRYIACLKTKMNSETLLSGEPGSPYSPVQSQQIQSAITGTISPQGIVVPASALQQGNVAMATVAGGTVYQPVTVVTPQGQVVTQTLSPGTIRIQNSQLQLQLNQDLSILHQDDGSSKNKRGVLPKHATNVMRSWLFQHIGHPYPTEDEKKQIAAQTNLTLLQVNNWFINARRRILQPMLDSSCSETPKTKKKTAQNRPVQRFWPDSIASGVAQPPPSELTMSEGAVVTITTPVNMNVDSLQSLSSDGATLAVQQVMMAGQSEDESVDSTEEDAGALAPAHISGLVLENSDSLQ
B2: Centrosomal protein POC5 (Homo sapiens), Q8NA72 (parent)
chain: MSSDEEKYSLPVVQNDSSRGSSVSSNLQEEYEELLHYAIVTPNIEPCASQSSHPKGELVPDVRISTIHDILHSQGNNSEVRETAIEVGKGCDFHISSHSKTDESSPVLSPRKPSHPVMDFFSSHLLADSSSPATNSSHTDAHEILVSDFLVSDENLQKMENVLDLWSSGLKTNIISELSKWRLNFIDWHRMEMRKEKEKHAAHLKQLCNQINELKELQKTFEISIGRKDEVISSLSHAIGKQKEKIELMRTFFHWRIGHVRARQDVYEGKLADQYYQRTLLKKVWKVWRSVVQKQWKDVVERACQARAEEVCIQISNDYEAKVAMLSGALENAKAEIQRMQHEKEHFEDSMKKAFMRGVCALNLEAMTIFQNRNDAGIDSTNNKKEEYGPGVQGKEHSAHLDPSAPPMPLPVTSPLLPSPPAAVGGASATAVPSAASMTSTRAASASSVHVPVSALGAGSAATAASEEMYVPRVVTSAQQKAGRTITARITGRCDFASKNRISSSLAIMGVSPPMSSVVVEKHHPVTVQTIPQATAAKYPRTIHPESSTSASRSLGTRSAHTQSLTSVHSIKVVD
partner: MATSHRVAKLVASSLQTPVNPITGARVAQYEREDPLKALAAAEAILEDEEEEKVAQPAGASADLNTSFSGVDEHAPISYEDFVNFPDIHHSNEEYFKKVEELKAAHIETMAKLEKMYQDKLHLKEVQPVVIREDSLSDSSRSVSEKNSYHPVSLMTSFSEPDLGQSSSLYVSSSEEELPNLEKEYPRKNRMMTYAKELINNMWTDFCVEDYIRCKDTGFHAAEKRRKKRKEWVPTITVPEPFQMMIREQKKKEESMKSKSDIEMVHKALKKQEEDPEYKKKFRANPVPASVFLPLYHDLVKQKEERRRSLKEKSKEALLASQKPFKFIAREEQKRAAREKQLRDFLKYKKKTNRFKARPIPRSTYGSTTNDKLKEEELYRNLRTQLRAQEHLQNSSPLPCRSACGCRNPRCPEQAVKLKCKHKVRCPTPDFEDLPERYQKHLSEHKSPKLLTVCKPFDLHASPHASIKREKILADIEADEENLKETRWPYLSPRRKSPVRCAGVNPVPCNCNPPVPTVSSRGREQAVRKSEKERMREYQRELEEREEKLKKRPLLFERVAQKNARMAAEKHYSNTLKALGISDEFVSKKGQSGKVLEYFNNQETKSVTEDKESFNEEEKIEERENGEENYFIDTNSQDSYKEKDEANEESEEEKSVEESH
B3: Syntenin-2 (Homo sapiens), Q9H190 (parent)
chain: MSSLYPSLEDLKVDQAIQAQVRASPKMPALPVQATAISPPPVLYPNLAELENYMGLSLSSQEVQESLLQIPEGDSTAVSGPGPGQMVAPVTGYSLGVRRAEIKPGVREIHLCKDERGKTGLRLRKVDQGLFVQLVQANTPASLVGLRFGDQLLQIDGRDCAGWSSHKAHQVVKKASGDKIVVVVRDRPFQRTVTMHKDSMGHVGFVIKKGKIVSLVKGSSAARNGLLTNHYVCEVDGQNVIGLKDKKIMEILATAGNVVTLTIIPSVIYEHMVKKLPPVLLHHTMDHSIPDA
partner: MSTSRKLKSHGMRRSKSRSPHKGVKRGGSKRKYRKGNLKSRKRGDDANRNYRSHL
B4: Glutathione S-transferase Mu 3 (Homo sapiens), P21266 (parent)
chain: MSCESSMVLGYWDIRGLAHAIRLLLEFTDTSYEEKRYTCGEAPDYDRSQWLDVKFKLDLDFPNLPYLLDGKNKITQSNAILRYIARKHNMCGETEEEKIRVDIIENQVMDFRTQLIRLCYSSDHEKLKPQYLEELPGQLKQFSMFLGKFSWFAGEKLTFVDFLTYDILDQNRIFDPKCLDEFPNLKAFMCRFEALEKIAAYLQSDQFCKMPINNKMAQWGNKPVC
partner: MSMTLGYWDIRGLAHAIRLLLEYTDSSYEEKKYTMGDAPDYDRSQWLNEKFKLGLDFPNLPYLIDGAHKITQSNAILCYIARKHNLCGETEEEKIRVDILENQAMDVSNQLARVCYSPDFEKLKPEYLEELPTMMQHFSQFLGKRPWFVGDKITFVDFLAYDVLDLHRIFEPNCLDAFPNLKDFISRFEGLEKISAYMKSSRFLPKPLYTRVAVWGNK
B5: Protein FAM9B (Homo sapiens), Q8IZU0 (parent)
chain: MAAWGKKHAGKDPVRDECEERNRFTETREEDVTDEHGEREPFAETDEHTGANTKKPEDTAEDLTAKRKRMKMDKTCSKTKNKSKHALRKKQLKRQKRDYIHSLKLLNVLEEYITDEQKEEEEEEGEEEELIRIFQEQQKKWQQYRSVRRERLKEMKLLRDQFVKALEDFEDLCDRVFSDEDSELDN
partner: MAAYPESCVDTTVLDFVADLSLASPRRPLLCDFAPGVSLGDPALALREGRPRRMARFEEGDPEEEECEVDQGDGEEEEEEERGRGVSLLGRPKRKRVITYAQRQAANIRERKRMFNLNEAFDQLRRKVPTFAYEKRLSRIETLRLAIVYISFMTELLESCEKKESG
B6: Centrosomal protein POC5 (Homo sapiens), Q8NA72 (parent)
chain: B2 chain
partner: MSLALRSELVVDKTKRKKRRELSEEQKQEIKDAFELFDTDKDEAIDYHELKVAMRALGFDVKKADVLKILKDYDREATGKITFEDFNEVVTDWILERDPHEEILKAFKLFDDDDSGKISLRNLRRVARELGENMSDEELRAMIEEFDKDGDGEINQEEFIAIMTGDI
B7: Sodium channel modifier 1 (Homo sapiens), Q9BWG6 (parent)
chain: MSFKREGDDWSQLNVLKKRRVGDLLASYIPEDEALMLRDGRFACAICPHRPVLDTLAMLTAHRAGKKHLSSLQLFYGKKQPGKERKQNPKHQNELRREETKAEAPLLTQTRLITQSALHRAPHYNSCCRRKYRPEAPGPSVSLSPMPPSEVKLQSGKISREPEPAAGPQAEESATVSAPAPMSPTRRRALDHYLTLRSSGWIPDGRGRWVKDENVEFDSDEEEPPDLPLD
partner: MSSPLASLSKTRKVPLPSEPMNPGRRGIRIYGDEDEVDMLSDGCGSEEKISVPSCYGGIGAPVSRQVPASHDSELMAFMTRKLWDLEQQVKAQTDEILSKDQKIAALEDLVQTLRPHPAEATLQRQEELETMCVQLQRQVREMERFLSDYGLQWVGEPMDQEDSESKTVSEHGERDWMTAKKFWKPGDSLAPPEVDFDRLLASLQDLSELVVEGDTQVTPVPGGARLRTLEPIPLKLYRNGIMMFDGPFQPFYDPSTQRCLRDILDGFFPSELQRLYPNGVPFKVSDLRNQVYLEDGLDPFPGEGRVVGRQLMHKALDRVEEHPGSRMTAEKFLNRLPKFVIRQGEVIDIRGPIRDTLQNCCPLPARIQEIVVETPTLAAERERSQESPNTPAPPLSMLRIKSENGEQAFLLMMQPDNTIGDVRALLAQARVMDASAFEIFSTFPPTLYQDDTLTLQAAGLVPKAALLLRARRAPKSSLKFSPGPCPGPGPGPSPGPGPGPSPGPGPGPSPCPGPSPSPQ
B8: BUD13 homolog (Homo sapiens), Q9BRD0 (parent)
chain: MAAAPPLSKAEYLKRYLSGADAGVDRGSESGRKRRKKRPKPGGAGGKGMRIVDDDVSWTAISTTKLEKEEEEDDGDLPVVAEFVDERPEEVKQMEAFRSSAKWKLLGGHNEDLPSNRHFRHDTPDSSPRRVRHGTPDPSPRKDRHDTPDPSPRRARHDTPDPSPLRGARHDSDTSPPRRIRHDSSDTSPPRRARHDSPDPSPPRRPQHNSSGASPRRVRHDSPDPSPPRRARHGSSDISSPRRVHNNSPDTSRRTLGSSDTQQLRRARHDSPDLAPNVTYSLPRTKSGKAPERASSKTSPHWKESGASHLSFPKNSKYEYDPDISPPRKKQAKSHFGDKKQLDSKGDCQKATDSDLSSPRHKQSPGHQDSDSDLSPPRNRPRHRSSDSDLSPPRRRQRTKSSDSDLSPPRRSQPPGKKAAHMYSGAKTGLVLTDIQREQQELKEQDQETMAFEAEFQYAETVFRDKSGRKRNLKLERLEQRRKAEKDSERDELYAQWGKGLAQSRQQQQNVEDAMKEMQKPLARYIDDEDLDRMLREQEREGDPMANFIKKNKAKENKNKKVRPRYSGPAPPPNRFNIWPGYRWDGVDRSNGFEQKRFARLASKKAVEELAYKWSVEDM
partner: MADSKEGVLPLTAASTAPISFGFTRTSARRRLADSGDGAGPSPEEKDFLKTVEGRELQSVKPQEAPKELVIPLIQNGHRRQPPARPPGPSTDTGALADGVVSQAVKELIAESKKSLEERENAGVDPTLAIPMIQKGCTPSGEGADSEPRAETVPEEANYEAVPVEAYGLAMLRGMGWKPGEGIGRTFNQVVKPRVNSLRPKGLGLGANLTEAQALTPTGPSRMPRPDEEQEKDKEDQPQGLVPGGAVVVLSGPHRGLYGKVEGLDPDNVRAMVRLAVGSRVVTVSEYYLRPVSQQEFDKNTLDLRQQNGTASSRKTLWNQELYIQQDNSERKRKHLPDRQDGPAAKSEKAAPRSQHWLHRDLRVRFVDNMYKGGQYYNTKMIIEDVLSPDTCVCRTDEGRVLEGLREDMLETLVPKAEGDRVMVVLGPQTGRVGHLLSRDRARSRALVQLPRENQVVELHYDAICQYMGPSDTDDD

The variants in the first test derive from B1. To be noted: with vp37c_human VPS37C.
On to E103D, for which the “effect of a mutation on the interaction” value is reported as “with no effect”.

Variants of B2 are the subject of a further test. The note with it: with FAM161A.
In the case of I175M, the “effect of a mutation on the interaction” value is listed as “with no effect”.

For H36R, the “effect of a mutation on the interaction” value was “with no effect”.

The variants in a further test derive from B3. The note with it: with stp1_human TNP1, P09430.
As for G242R, the “effect of a mutation on the interaction” value is “disrupting interaction strength”.

As for G225R, the “effect of a mutation on the interaction” value is on record as “disrupting interaction strength”.

Consider V182M, for which the “effect of a mutation on the interaction” value is “disrupting interaction strength”.

Variants of B4 are the subject of a further test. To be noted: with gstm4_human GSTM4, Q03013.
Turning to L23P, the “effect of a mutation on the interaction” value is “disrupting interaction strength”.

On to R86H, for which the “effect of a mutation on the interaction” value is “disrupting interaction strength”.

In the next test the parent is B5. To be noted: with fer3l_human FERD3L.
Consider R23H, for which the “effect of a mutation on the interaction” value was “with no effect”.

Variants of B6 are the subject of a further test. The note with it: with cetn3_human CETN3, O15182.
For the variant H36R, the “effect of a mutation on the interaction” value is listed as “with no effect”.

The variants in another test derive from B7. To be noted: with ubx11_human UBXN11, Q5T124.
In the case of A174V, the “effect of a mutation on the interaction” value is “with no effect”.

In another test the parent is B8. To be noted: with gpkow_human GPKOW.
Regarding P148L, the “effect of a mutation on the interaction” value is “with no effect”.
